The results in this text go back to article doi:10.1101/2023.03.10.531533 (bioRxiv, 2023).

Assay [1] has as its target mouse Fc-tagged SARS-CoV-2 RBD (SARS-CoV-2, Wuhan-Hu-1 (assumed from …, UniProt P0DTC2)). Nature of the assay: ELISA. On the technique in general: In an ELISA, binding on a coated surface is turned into a signal by an enzyme label.
For assay [2], the target named is recombinant SARS-CoV-1 spike protein (SARS-CoV-1, isolate , UniProt P59594, stabilised). Description: ELISA.
The target of assay [3] is HR2 protein, residues H1159-K1211 of the SARS-CoV-2 spike (SARS-CoV-2, UniProt P0DTC2). Nature of the assay: crystal structure.

B1: VHH R3DC23 (VHH)
VHH: QVQLQESGGGLVQAGDSLTLSCAVSGRIFSTYTMGWFRQAPGKEREFVAAVRWGAGTIYYADSMKGRFTISRDSAKNTVDLQMNSTKPEDTAVYYCGAAYVSKANYGSLWYQDSRRYDYWGQGTQVTVSS
For B1, the results for the binding result in assay [1], in assay [2] and in assay [3] were “no binding”, “binds” and “binds”, respectively.
